Experiments:
[1] = target: fusion glycoprotein (F) of RSV A GFP (Tables 41 and 42) (respiratory syncytial virus A); assay: cell-based or functional assay
[2] = target: fusion glycoprotein (F) of RSV B GFP (Tables 41 and 42) (respiratory syncytial virus B); assay: cell-based or functional assay
[3] = target: fusion glycoprotein (F) of MPV A GFP (Tables 41 and 43) (metapneumovirus A); assay: cell-based or functional assay
[4] = target: fusion glycoprotein of the RSV used in the neutralization assay of Example 1 (respiratory syncytial virus (strain not …)); assay: cell-based or functional assay
RSV-A F = target: T1, RSV-A F (RSV A); assay: BLI
T1 construct: also called RSV F A

RSV-B F = target: T2, RSV-B F (RSV B); assay: BLI
T2 construct: also called RSV F B

[5] = target: RSV A fusion glycoprotein (F), virus of the neutralisation assays of Tables 54 and 57 (RSV A); assay: cell-based or functional assay
RSV F B, B Ref = target: T3, RSV F B, B Ref (RSV B); assay: FACS, % binding to RSV F B variants
T3 construct: whole, on cells

RSV F B K68N-N201S = target: T4, RSV F B K68N-N201S (RSV B); assay: FACS, % binding to RSV F B variants
T4 construct: whole, on cells

RSV F B K68N-N208S = target: T5, RSV F B K68N-N208S (RSV B); assay: FACS, % binding to RSV F B variants
T5 construct: whole, on cells

RSV F B N201S = target: T6, RSV F B N201S (RSV B); assay: FACS, % binding to RSV F B variants
T6 construct: whole, on cells

RSV F B N208S = target: T7, RSV F B N208S (RSV B); assay: FACS, % binding to RSV F B variants
T7 construct: whole, on cells; also called mutant N208S

RSV F B S443P = target: T8, RSV F B S443P (RSV B); assay: FACS, % binding to RSV F B variants
T8 construct: whole, on cells; also called mutant S443P

RSV F B N208D = target: T9, RSV F B N208D (RSV B); assay: FACS, % binding to RSV F B variants
T9 construct: whole, on cells

[6] = target: fusion glycoprotein (F) of the RSV used in the GFP-based neutralization assay of Table 23 (respiratory syncytial virus); assay: cell-based or functional assay
[7] = target: fusion glycoprotein (F) of the MPV (non-D280N) used in the GFP-based neutralization assay of Table 23 (metapneumovirus); assay: cell-based or functional assay
[8] = target: RSV fusion glycoprotein (RSV-F) (respiratory syncytial virus); assay: biolayer interferometry (BLI), rIgG1 with M428L/N434S

B1: MPK104-rIgG1-LS (antibody, V domains shown)
VH: EVQLVESGGGLVKPGGSLRLSCAASGFTIDGYGMNWVRQAPGKGLEWVSSISASSNYIYYADSMKGRFTISRDNGKNSLYLQMHSLRVEDTGVYYCARAPLEPPYFDLWGRGTLVTVSS
VL: QSVLTQPPSVSGAPGQRVTISCSGGSSNIGAGYDVHWYQQVPGKGPKVLIYGNNNRPSGVPDRFSGSNFGASASLAITGLQADDEADYFCQSYDRRLGGPVFGGGTKLTVL
[1]
  IC50 (ng/ml), RSV A GFP neutralization: 7.44 ng/mL
[2]
  IC50 (ng/ml), RSV B GFP neutralization: 5.23 ng/mL
[3]
  IC50 (ng/ml), MPV A GFP neutralization: 6.79 ng/mL

B2: MPK169-v2 (antibody, V domains shown)
VH: EVQLVQSGAEVKKPGESLTISCQTSGYSFINYWIGWVRQMPGKGLEWMGVIYPFDSDTEYSPSFRGHVTISADKSINTAYLQWNSLGASDTAMYYCARFTFGIALVSGDVNGEGHAFDVWGRGTLVTVSS
VL: EIVLTQSPPTLSVSPGQRATLSCRASQSVADKLAWYQQRPGQAPRLLIYGASSRATGVPARFSGSGSETEFTLTITSLQSEDFALYYCHQYNNWPHAFGQGTRLVIK
[4]
  RSV Neutralization - IC50: 1.4 ng/mL

B3: MPK77-rIgG1-LS (antibody, V domains shown)
VH: EVQLVESGGGLVKPGGSLRLSCAASKSFSGYYMIWIRQAPGRGLEWIADISGSSTYTDYADSVKGRFTISRDNTRNTLYLQMNSLRPEDTAVYYCATEQVPSPGPFDLWGPGTLVTVSS
VL: QSVLTQPPSVSGAPGQRVIISCTGSSSNIGAGYDVHWYQQFPGTSPKLLIYRNTNRPSGVPDRFSGFKSGASAALAITGLQAEDEADYYCQSYDRSLSGWAFGGGTKVTVL
[1]
  IC50 (ng/ml), RSV A GFP neutralization: 6.77 ng/mL
[2]
  IC50 (ng/ml), RSV B GFP neutralization: 7.32 ng/mL
[3]
  IC50 (ng/ml), MPV A GFP neutralization: 12.9 ng/mL

B4: MPK176-v4.3 (antibody, V domains shown)
VH: QVQLVQSGAEVKKPGASVRVSCKASGYTLTAYGISWVRQAPGQGLEWMGWISPKHGSTHYAQRFQGRVTMTTDTSTSTAYMELRSLRPDDTAVYFCAREGVDIMAVPWYFDYWGQGTLVAVSS
VL: SYVLTQPPSVSVAPGQTARISCGGNNIGSKSVHWYQQKPGQAPVVVVYDDSKRPSGIPERFSGSNSGNTATLTISGVEAGDEADYFCQVWDSATDHWVFGGGTKLTVL
RSV-A F
  Kd: 0.139 nM
RSV-B F
  Kd: 0.0117 nM
[5]
  IC50, neutralization of RSVA: 4.35 ng/mL
RSV F B, B Ref
  % binding: 34.2%
RSV F B K68N-N201S
  % binding: 60.4%
RSV F B K68N-N208S
  % binding: 59.3%
RSV F B N201S
  % binding: 60.6%
RSV F B N208S
  % binding: 61.2%
RSV F B S443P
  % binding: 29.8%

B5: MPK190-rIgG1-LS (antibody, V domains shown)
VH: EVQLVESGGGLVKPGGSLTLSCAASGFSISGYGMNWVRQAPGRGLEWVASISASSTYIYYADSMKGRFTISRDNGKTSLYLQMKSLRAEDTAVYYCARAPIEPPYFDLWGRGTLVTVSS
VL: QSVLTQPPSVSGAPGQRVTISCTGSNSNIGAGYDVHWYQHLPGKAPKVLIYGNNNRPSVVPDRFSGSNSGASASLAISGLQAEDEADYFCQSYDRRLSGPIFGGGTKLTVL
[1]
  IC50 (ng/ml), RSV A GFP neutralization; sample MPK190-rIgG1-LS/4B6: 3.73 ng/mL
  IC50 (ng/ml), RSV A GFP neutralization; sample MPK190-rIgG1-LS/KYT: 3.88 ng/mL
  IC50 (ng/ml), RSV A GFP neutralization; stressed sample MPK190-rIgG1-LS day 0: 3.21 ng/mL
  IC50 (ng/ml), RSV A GFP neutralization; stressed sample MPK190-rIgG1-LS day 7: 2.94 ng/mL
  IC50 (ng/ml), RSV A GFP neutralization; stressed sample MPK190-rIgG1-LS day 12 (day 13 in Table 41): 7.02 ng/mL
[2]
  IC50 (ng/ml), RSV B GFP neutralization; sample MPK190-rIgG1-LS/4B6: 6.39 ng/mL
  IC50 (ng/ml), RSV B GFP neutralization; sample MPK190-rIgG1-LS/KYT: 3.36 ng/mL
  IC50 (ng/ml), RSV B GFP neutralization; stressed sample MPK190-rIgG1-LS day 0: 4.1 ng/mL
  IC50 (ng/ml), RSV B GFP neutralization; stressed sample MPK190-rIgG1-LS day 7: 4.4 ng/mL
  IC50 (ng/ml), RSV B GFP neutralization; stressed sample MPK190-rIgG1-LS day 12 (day 13 in Table 41): 4.51 ng/mL
[3]
  IC50 (ng/ml), MPV A GFP neutralization; sample MPK190-rIgG1-LS/4B6: 6.16 ng/mL
  IC50 (ng/ml), MPV A GFP neutralization; sample MPK190-rIgG1-LS/KYT: 7.9 ng/mL
  IC50 (ng/ml), MPV A GFP neutralization; stressed sample MPK190-rIgG1-LS day 0: 7.22 ng/mL
  IC50 (ng/ml), MPV A GFP neutralization; stressed sample MPK190-rIgG1-LS day 7: 5.8 ng/mL
  IC50 (ng/ml), MPV A GFP neutralization; stressed sample MPK190-rIgG1-LS day 13: 8.39 ng/mL

B6: MPK65-v2-v3.1 (antibody, V domains shown)
VH: QVPLVQSGAEVKKPGESLKISCKGSGYSFISYWIGWVRQMPGKGLEWMGVIYPFDADTKYSPSFQGHVTISADKSSNTAYVQWSSLKASDTAMYYCARFTFGIAVVTDDVSGEGQAFEIWGQGTMVTVSS
VL: EIVMMQSPATLSVSPGERATLSCRASQSVAGNLAWYQQRPGQAPRLLIYGASTRATGVPARFSGSGSETEFTLTISSLQSEDFAVYYCHQYSNWPQAFGQGTRLDIK
RSV-A F
  Kd: 0.192 nM
RSV-B F
  Kd: 0.639 nM
[5]
  IC50, neutralization of RSVA: 5.4 ng/mL
RSV F B, B Ref
  % binding: 60.1%
RSV F B K68N-N201S
  % binding: 22.6%
RSV F B K68N-N208S
  % binding: 0.052%
RSV F B N201S
  % binding: 31.3%
RSV F B N208D
  % binding: 0.14%
RSV F B N208S
  % binding: 0.029%
RSV F B S443P
  % binding: 30.6%

B7: MPH12-v17 (VH-FRGL-D62E/VL-D25S) (antibody, V domains shown)
VH: QVQLVESGGGLVKPGGSLRLSCAASGFTFSGFYMKWIRQAPGKGLEWVSSISASGSYTNYAESVEGRFTISRDNAKNSLYLQMNSLRAEDTAVYYCARGDSYCGASACHGEFFHKWGQGTLVTVSS
VL: QSVLTQPPSVSGAPGQRVTISCTGSSSNIGADFDVHWYQQLPGTAPKLLIYGNINRPSGVPDRFSGSRSGTSAFLAITRLQAEDEADYYCQSYDRSLHYVFGAGTKVTVL
notes: also called MPH12 VH-FRGL-D62E / MPH12 VL-D25S
[6]
  RSV IC 50 (ng/mL), GFP-based in vitro neutralization: 44.9 ng/mL
[7]
  MPV IC50 (ng/mL), GFP-based in vitro neutralization: 30.4 ng/mL
[8]
  Kd: 0.39 nM

B8: MPH12-v35 (VH-FRGL-D62E/VL-FRGL-D25S) (antibody, V domains shown)
VH: QVQLVESGGGLVKPGGSLRLSCAASGFTFSGFYMKWIRQAPGKGLEWVSSISASGSYTNYAESVEGRFTISRDNAKNSLYLQMNSLRAEDTAVYYCARGDSYCGASACHGEFFHKWGQGTLVTVSS
VL: QSVLTQPPSVSGAPGQRVTISCTGSSSNIGADFDVHWYQQLPGTAPKLLIYGNINRPSGVPDRFSGSKSGTSASLAITGLQAEDEADYYCQSYDRSLHYVFGTGTKVTVL
[6]
  RSV IC 50 (ng/mL), GFP-based in vitro neutralization: 57.5 ng/mL
[7]
  MPV IC50 (ng/mL), GFP-based in vitro neutralization: 39.9 ng/mL
[8]
  Kd: 0.46 nM

B9: MPH12-v34 (VH-FRGL-S63A/VL-FRGL-D25S) (antibody, V domains shown)
VH: QVQLVESGGGLVKPGGSLRLSCAASGFTFSGFYMKWIRQAPGKGLEWVSSISASGSYTNYADAVEGRFTISRDNAKNSLYLQMNSLRAEDTAVYYCARGDSYCGASACHGEFFHKWGQGTLVTVSS
VL: QSVLTQPPSVSGAPGQRVTISCTGSSSNIGADFDVHWYQQLPGTAPKLLIYGNINRPSGVPDRFSGSKSGTSASLAITGLQAEDEADYYCQSYDRSLHYVFGTGTKVTVL
[6]
  RSV IC 50 (ng/mL), GFP-based in vitro neutralization: 48.6 ng/mL
[7]
  MPV IC50 (ng/mL), GFP-based in vitro neutralization: 31.9 ng/mL
[8]
  Kd: 0.5 nM

B10: MPH12-v29 (VH-FRGL-D62E/VL-S26A) (antibody, V domains shown)
VH: QVQLVESGGGLVKPGGSLRLSCAASGFTFSGFYMKWIRQAPGKGLEWVSSISASGSYTNYAESVEGRFTISRDNAKNSLYLQMNSLRAEDTAVYYCARGDSYCGASACHGEFFHKWGQGTLVTVSS
VL: QSVLTQPPSVSGAPGQRVTISCTGSDANIGADFDVHWYQQLPGTAPKLLIYGNINRPSGVPDRFSGSRSGTSAFLAITRLQAEDEADYYCQSYDRSLHYVFGAGTKVTVL
notes: also called MPH12 VH-FRGL-D62E / MPH12 VL-S26A
[6]
  RSV IC 50 (ng/mL), GFP-based in vitro neutralization: 60.3 ng/mL
[7]
  MPV IC50 (ng/mL), GFP-based in vitro neutralization: 35.2 ng/mL
[8]
  Kd: 0.34 nM

B11: MPH12-rIgG1-LS (antibody, V domains shown)
VH: QVQLVESGGGLVKPGGSLRLSCVASGFTFSGFYMKWIRQAPGKGLEWVSSISASGSYTNYADSVEGRFTVSRDNAKNSLFLLMSSLRAEDTAVYYCARGDSYCGASACHGEFFHKWGQGTLVTVSS
VL: QSVLTQPPSVSGAPGQRVTISCTGSDSNIGADFDVHWYQQLPGTAPKLLIYGNINRPSGVPDRFSGSRSGTSAFLAITRLQAEDEADYYCQSYDRSLHYVFGAGTKVTVL
[1]
  IC50 (ng/ml), RSV A GFP neutralization: 6.55 ng/mL
[2]
  IC50 (ng/ml), RSV B GFP neutralization: 5.23 ng/mL
[3]
  IC50 (ng/ml), MPV A GFP neutralization: 13 ng/mL

From patent US20260028391A1 (HUMABS BIOMED, published 2026)
